Measurements from patent US20250313635A1 (Merck Sharp & Dohme, published 2025).

Tests used:
[1] = target: T1, recombinant human αvβ1 integrin extracellular domains (human, UniProt P06756 1-992; P05556 1-728, Secreted glycoprotein heterodimer. It is biotinylated on the omitted Avitag, and an interchain disulfide sits in the omitted coiled-coils.); assay: ForteBio Octet Red (BLI)
T1 construct: Soluble heterodimer co-expressed in Expi293 cells; also called hαvβ1; not shown: Alpha chain: acidic coiled-coil with cysteine and GG-Avitag; Beta chain: basic coiled-coil with cysteine and GG-Avitag

[2] = target: T2, recombinant human αvβ3 integrin extracellular domains (human, UniProt P06756 1-992; P05106 1-718, Secreted glycoprotein heterodimer. It is biotinylated on the omitted Avitag, and an interchain disulfide sits in the omitted coiled-coils.); assay: ForteBio Octet Red (BLI)
T2 construct: Soluble heterodimer co-expressed in Expi293 cells; also called hαvβ3; not shown: Alpha chain: acidic coiled-coil with cysteine and GG-Avitag; Beta chain: basic coiled-coil with cysteine and GG-Avitag

[3] = target: T3, recombinant mouse αvβ1 integrin extracellular domains (mouse, UniProt P43406 1-988; P09055 1-728, Biotinylated on the Avitag (tag not in the letters); interchain disulfide between the coiled-coils (not in the letters).); assay: ForteBio Octet Red (BLI)
T3 construct: Soluble heterodimer co-expressed in Expi293 cells; also called mαvβ1

[4] = target: T4, recombinant mouse αvβ6 integrin extracellular domains (mouse, UniProt P43406 1-988; Q9Z0T9 1-706, Biotinylated on the Avitag (tag not in the letters); interchain disulfide between the coiled-coils (not in the letters).); assay: ForteBio Octet Red (BLI)
T4 construct: Soluble heterodimer co-expressed in Expi293 cells; also called mαvβ6

[5] = target: T5, recombinant human αvβ5 integrin extracellular domains (human, UniProt P06756 1-992; P18084 1-719, Secreted glycoprotein heterodimer. It is biotinylated on the omitted Avitag, and an interchain disulfide sits in the omitted coiled-coils.); assay: AlphaLISA blocking of human vitronectin-GST binding
T5 construct: Soluble heterodimer co-expressed in Expi293 cells; also called hαvβ5; not shown: Alpha chain: acidic coiled-coil with cysteine and GG-Avitag; Beta chain: basic coiled-coil with cysteine and GG-Avitag

[6] = target: T2, recombinant human αvβ3 integrin …; assay: as above
[7] = target: T6, mouse α5β1 integrin on CHOK1 stable cells (mouse, UniProt P11688 45-1053; P09055 21-798); assay: cell-based ELISA (CELISA), CHOK1 cells expressing the integrin
T6 construct: whole, on cells; Stably expressed on CHOK1 cells; also called mα5β1; CHOK1-mouse α5β1
Experimental: (§1) Integrin cell-based ELISA (CELISA) assay. Cell binding EC₅₀ data for antibodies were obtained for CHOK1 parental cells and CHOK1 cells expressing human or mouse αvβ1, αvβ6, and αvβ1 integrins by cell-based ELISA. Three days prior to the assay cells were seeded at 10,000 cells per well in 100 μL/well of media in Falcon 96-well Flat-Bottom Tissue Culture Plates (REF 353916), resulting in an even cell monolayer in each well on the day of the assay. On the day of the assay, media was removed from the cells and a fivefold titration of primary antibodies was added at concentrations ranging from 0 to 200 nM in TBSF+MnCl₂ buffer (25 mM Tris, 0.15 M NaCl, 0.1% BSA, 0.5 mM MnCl₂, pH 7.5). Cells incubated with primary antibody solution for 1 hour at room temperature. […] After 30 minutes of incubation at room temperature, secondary antibody was removed, and cells were washed twice with 150 μL/well of 1×DPBS+Tween 20. Then 50 μL/well of TMB substrate (1-Step Ultra TMB-ELISA, Thermo Scientific, #34028) was added, incubated with cells at room temperature, and 50 μL/well of TMB stop solution (Seracare, #KPL 50-85-05) was then added after five minutes. Absorbance was read on a TECAN plate reader at 450 nm, with a 620 nm reference wavelength.

[8] = target: T7, mouse αvβ6 integrin on CHOK1 stable cells (mouse, UniProt P43406 31-1044; Q9Z0T9 22-787); assay: as above
T7 construct: whole, on cells; Stably expressed on CHOK1 cells; also called mαvβ6; CHOK1-mouse αvβ6
Experimental: as §1

[9] = target: T8, mouse αvβ1 integrin on CHOK1 stable cells (mouse, UniProt P43406 31-1044; P09055 21-798); assay: as above
T8 construct: whole, on cells; Stably expressed on CHOK1 cells; the adhesion assay used the line with the hamster α5 gene knocked out (CHOK1-α5KO-mαvβ1); also called mαvβ1; CHOK1-mouse αvβ1
Experimental: as §1

[10] = target: T1, recombinant human αvβ1 integrin …; assay: AlphaLISA blocking of human fibronectin binding
[11] = target: T9, recombinant human α5β1 integrin extracellular domains (human, UniProt P08648 1-995; P05556 1-728, Biotinylated on the Avitag (tag not in the letters); interchain disulfide between the coiled-coils (not in the letters).); assay: AlphaLISA blocking of human fibronectin binding
T9 construct: Soluble heterodimer co-expressed in Expi293 cells; also called hα5β1

[12] = target: T4, recombinant mouse αvβ6 integrin …; assay: AlphaLISA blocking of mouse LAP-6His binding
Experimental: Briefly, the testing antibody (8 μL) was added as a 4×(of Final testing concentration) solution in the HEPES buffer described previously into a 384w AlphaPlate™ (Perkin Elmer #6005350). Then the integrin and ligand were added sequentially as 8×(4 μL each). Plates were sealed and incubated at room temperature for two hours. Then 4×acceptor bead solution ([…]) was added, and the plates were resealed and incubated at room temperature (RT) for one hour. Finally, 4×([…]) donor beads solution was added in a darkened room and incubated for 45 minutes at room temperature. Plates were read on the Envision (Perkin Elmer) in AlphaScreen™ mode within three hours of donor bead addition.

T6 sequence (P11688 45-1053, chain 1 of 2): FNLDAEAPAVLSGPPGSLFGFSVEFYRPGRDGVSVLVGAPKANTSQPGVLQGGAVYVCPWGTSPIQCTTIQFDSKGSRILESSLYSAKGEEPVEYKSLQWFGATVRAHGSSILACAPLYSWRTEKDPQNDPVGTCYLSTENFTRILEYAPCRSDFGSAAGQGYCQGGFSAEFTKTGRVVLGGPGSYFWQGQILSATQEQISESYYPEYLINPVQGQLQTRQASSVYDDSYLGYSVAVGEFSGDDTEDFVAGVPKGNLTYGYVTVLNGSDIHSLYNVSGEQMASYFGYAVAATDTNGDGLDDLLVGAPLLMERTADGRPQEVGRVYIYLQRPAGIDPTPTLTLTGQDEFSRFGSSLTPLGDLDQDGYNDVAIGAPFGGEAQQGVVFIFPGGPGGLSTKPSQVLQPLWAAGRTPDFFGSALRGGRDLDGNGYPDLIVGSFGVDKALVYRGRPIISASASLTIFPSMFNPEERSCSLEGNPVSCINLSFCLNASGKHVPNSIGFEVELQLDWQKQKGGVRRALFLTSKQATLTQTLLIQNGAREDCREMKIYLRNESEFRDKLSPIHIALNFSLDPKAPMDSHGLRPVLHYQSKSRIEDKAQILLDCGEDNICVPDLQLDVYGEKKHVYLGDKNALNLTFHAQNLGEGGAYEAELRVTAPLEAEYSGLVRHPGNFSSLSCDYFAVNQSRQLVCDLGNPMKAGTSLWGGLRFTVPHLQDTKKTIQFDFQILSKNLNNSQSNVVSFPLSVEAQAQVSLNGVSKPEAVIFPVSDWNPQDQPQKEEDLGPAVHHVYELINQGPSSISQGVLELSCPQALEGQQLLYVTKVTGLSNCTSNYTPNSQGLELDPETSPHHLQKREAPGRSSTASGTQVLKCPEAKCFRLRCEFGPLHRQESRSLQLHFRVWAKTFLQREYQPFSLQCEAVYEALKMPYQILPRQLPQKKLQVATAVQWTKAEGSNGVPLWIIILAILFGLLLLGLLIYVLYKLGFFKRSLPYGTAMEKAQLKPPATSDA
T6 sequence (P09055 21-798, chain 2 of 2): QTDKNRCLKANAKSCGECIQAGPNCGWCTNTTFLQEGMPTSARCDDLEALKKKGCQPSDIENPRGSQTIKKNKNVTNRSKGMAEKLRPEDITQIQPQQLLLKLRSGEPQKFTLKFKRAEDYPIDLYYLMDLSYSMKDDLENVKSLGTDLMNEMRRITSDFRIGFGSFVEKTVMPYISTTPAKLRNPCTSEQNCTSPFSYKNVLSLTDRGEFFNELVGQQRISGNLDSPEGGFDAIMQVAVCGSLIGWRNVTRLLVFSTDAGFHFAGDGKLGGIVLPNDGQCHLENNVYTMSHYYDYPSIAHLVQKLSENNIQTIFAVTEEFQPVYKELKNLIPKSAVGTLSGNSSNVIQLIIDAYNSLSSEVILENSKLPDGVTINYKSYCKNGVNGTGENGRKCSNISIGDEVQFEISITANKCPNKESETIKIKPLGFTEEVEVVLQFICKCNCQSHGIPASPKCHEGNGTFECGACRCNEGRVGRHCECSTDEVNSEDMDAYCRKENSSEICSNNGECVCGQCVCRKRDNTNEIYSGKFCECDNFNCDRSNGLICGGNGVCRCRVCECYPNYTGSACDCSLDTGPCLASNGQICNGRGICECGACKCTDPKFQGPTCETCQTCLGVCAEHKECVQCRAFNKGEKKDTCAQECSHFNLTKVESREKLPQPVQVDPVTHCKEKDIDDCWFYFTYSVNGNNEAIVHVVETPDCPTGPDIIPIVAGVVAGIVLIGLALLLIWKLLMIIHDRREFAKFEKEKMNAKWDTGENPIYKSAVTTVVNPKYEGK
T3 sequence (P43406 31-988 limits assumed, form in doubt, chain 1 of 2): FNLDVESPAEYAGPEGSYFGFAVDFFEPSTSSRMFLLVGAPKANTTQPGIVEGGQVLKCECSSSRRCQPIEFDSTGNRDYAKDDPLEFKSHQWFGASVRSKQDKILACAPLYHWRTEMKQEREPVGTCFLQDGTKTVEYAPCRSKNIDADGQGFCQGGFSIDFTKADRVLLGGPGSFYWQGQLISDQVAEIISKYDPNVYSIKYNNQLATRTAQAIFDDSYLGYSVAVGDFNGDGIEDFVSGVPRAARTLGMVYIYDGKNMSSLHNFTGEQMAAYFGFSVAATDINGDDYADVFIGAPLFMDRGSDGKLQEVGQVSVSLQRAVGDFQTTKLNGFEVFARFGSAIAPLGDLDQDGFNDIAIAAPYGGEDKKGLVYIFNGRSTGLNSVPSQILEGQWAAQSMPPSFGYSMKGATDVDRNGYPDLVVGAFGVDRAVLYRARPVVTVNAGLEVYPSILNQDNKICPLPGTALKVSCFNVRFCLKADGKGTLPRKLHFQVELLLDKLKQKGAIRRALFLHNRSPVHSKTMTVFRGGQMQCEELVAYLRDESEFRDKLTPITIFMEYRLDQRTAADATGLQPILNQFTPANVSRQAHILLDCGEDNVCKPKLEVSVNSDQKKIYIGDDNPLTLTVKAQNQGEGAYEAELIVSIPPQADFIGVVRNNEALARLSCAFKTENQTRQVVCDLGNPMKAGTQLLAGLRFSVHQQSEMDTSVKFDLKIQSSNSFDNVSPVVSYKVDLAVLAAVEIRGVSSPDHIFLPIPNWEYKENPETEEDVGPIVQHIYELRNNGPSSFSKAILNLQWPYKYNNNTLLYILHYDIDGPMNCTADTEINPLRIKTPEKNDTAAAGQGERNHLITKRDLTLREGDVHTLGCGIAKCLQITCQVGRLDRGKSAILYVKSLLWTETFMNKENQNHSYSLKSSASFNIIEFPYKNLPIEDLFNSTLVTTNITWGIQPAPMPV
T3 sequence (P09055 21-728 limits assumed, form in doubt, chain 2 of 2): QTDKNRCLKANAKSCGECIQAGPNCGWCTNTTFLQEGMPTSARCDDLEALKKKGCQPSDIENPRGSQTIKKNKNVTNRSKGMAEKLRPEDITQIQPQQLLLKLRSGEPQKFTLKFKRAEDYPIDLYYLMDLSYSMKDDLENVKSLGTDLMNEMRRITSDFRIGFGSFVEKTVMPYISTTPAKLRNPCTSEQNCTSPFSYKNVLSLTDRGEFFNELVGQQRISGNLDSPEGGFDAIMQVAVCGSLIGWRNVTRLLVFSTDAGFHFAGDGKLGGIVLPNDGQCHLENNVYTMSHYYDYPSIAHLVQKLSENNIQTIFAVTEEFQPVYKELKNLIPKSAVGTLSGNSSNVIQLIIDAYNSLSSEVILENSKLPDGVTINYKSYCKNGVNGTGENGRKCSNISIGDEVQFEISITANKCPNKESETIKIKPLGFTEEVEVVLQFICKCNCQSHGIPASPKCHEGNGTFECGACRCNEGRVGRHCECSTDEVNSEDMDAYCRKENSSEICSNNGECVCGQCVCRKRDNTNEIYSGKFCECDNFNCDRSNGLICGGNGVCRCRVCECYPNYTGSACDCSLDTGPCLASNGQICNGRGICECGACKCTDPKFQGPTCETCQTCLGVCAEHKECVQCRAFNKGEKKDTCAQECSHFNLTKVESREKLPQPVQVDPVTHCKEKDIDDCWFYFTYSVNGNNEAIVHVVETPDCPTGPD
T4 sequence (P43406 31-988 limits assumed, form in doubt, chain 1 of 2): as the sequence (P43406 31-988 limits assumed, form in doubt, chain 1 of 2) above
T4 sequence (Q9Z0T9 22-706 limits assumed, form in doubt, chain 2 of 2): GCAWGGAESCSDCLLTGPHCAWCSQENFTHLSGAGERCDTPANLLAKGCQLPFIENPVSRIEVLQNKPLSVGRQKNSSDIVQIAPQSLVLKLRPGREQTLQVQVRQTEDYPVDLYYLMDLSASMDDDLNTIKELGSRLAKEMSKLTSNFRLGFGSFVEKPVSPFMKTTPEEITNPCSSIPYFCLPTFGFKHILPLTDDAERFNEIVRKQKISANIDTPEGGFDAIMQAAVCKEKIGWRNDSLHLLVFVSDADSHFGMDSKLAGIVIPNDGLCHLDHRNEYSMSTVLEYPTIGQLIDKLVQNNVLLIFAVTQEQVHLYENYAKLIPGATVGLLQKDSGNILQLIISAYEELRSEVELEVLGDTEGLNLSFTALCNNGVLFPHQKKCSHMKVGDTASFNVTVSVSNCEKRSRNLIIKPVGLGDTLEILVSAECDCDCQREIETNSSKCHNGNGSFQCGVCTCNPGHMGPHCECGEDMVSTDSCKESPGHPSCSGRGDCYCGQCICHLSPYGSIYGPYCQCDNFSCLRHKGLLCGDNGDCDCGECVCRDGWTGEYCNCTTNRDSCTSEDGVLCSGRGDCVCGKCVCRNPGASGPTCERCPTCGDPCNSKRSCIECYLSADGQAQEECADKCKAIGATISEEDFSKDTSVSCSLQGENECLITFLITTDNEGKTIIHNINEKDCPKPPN

Kd [1] [nM] | Kd [2] [nM] | Kd [3] [nM] | Kd [4] [nM] | IC50 [5] [nM] | IC50 [6] [nM] | EC50 [7] [nM] | EC50 [8] [nM] | EC50 [9] [nM] | IC50 [10] [nM] | IC50 [11] [nM] | IC50 [12] [nM] | Binder
2.7 | 6.58 | 4.21 | 4.11 | 14.8 | 1.16 | 0.213 | 0.285 | 1.09 | 2.57 | 9.46 | 26.3 | Ab-29 (antibody, V domains shown) VH: ELQLQESGPGLVKPSETLSLTCTVSGGSISSNSYYWGWIRQPPGKGLEWIGSIYYSGSTYYNPSLKSRVTISVDTSKNQFSLKLSSVTAADTAVYYCARVRRVAGRGDSYYYYYGMDVWGQGTTVTVSS VL: DIQMTQSPSSVSASVGDRVTITCRASQGISRWLAWYQQKPGKAPKLLIYAASSLQSGVPSRFSGSGSGTDFTLTISSLQPEDFATYYCQQAISHPWTFGGGTKVEIK
14 | 6.47 | 48.4 | 2.9 | 31.7 | 0.94 | 1.76 | 0.64 | 0.743 | 2.26 | 47.3 | 17.7 | Ab-31 (antibody, V domains shown) VH: EVQLQESGPGLVKPSETLSLTCAVSGYSISSGYYWGWIRQPPGKGLEWIGSIYHSGNTYYNPSLKSRVTISVDTSKNQFSLKLSSVTAADTAVYYCARVPRYSRGDAYYYYGMDVWGQGTTVTVSS VL: DIQMTQSPSTLSASVGDRVTITCRASQSIGSWLAWYQQKPGKAPKLLIYKASSLESGVPSRFSGSGSGTEFTLTISSLQPDDFATYYCQQSGPYPWTFGGGTKVEIK
12.7 | 5.07 | 37.7 | 2.45 | 22.3 | 1.28 | – | 2.84 | 2.84 | 1.27 | 31.1 | 6.6 | Ab-33 (antibody, V domains shown) VH: EVQLVQSGAEVKKPGSSVKVSCKASGGTFSNYAISWVRQAPGQGLEWMGGIIPIFGTANYAQKFQGRVTITADESTSTAYMELSSLRSEDTAVYYCARAPRSARGDMYYYYYGMDVWGQGTTVTVSS VL: DIQMTQSPSTLSASVGDRVTITCRASQSIGSWLAWYQQKPGKAPKLLIYKASSLESGVPSRFSGSGSGTEFTLTISSLQPDDFATYYCQQYGRYPWTFGGGTKVEIK
7.4 | 6.14 | 25.9 | 2.59 | 26 | 1.03 | 0.131 | 0.508 | 0.609 | 2.41 | 34.1 | 17.1 | Ab-32 (antibody, V domains shown) VH: EVQLQESGPGLVKPSETLSLTCAVSGYSISSGYYWGWIRQPPGKGLEWIGSIYHSGNTYYNPSLKSRVTISVDTSKNQFSLKLSSVTAADTAVYYCARVPRYSRGDAYYYYGMDVWGQGTTVTVSS VL: EIVLTQSPGTLSLSPGERATLSCRASQSVRSSYLAWYQQKPGQAPRLLIYGASSRATGIPDRFSGSGSGTDFTLTISRLEPEDFAVYYCQQAGLVFTFGGGTKVEIK
6.75 | 5.29 | 35 | 3.03 | 53.5 | 1.24 | 0.03 | 0.335 | 0.593 | 3.15 | 43.1 | 23.2 | Ab-30 (antibody, V domains shown) VH: EVQLQESGPGLVKPSETLSLTCAVSGYSISSGYYWGWIRQPPGKGLEWIGSIYHSGNTYYNPSLKSRVTISVDTSKNQFSLKLSSVTAADTAVYYCARVPRYSRGDAYYYYGMDVWGQGTTVTVSS VL: DIQMTQSPSTLSASVGDRVTITCRASQSISSWLAWYQQKPGKAPKLLIYKASSLESGVPSRFSGSGSGTEFTLTISSLQPDDFATYYCQQVKIYPPYTFGGGTKVEIK
